Assay [1] deals with PD-1ECD-TEV-mFc融合蛋白 (human). Description: indirect ELISA, coated PD-1 Fc fusion (mFc form assumed for 5C4), run together with 6F5 and 6F5(Re). In general terms: An ELISA detects its analyte on a solid surface through an enzyme-linked reagent.
Assay [2] concerns the target PD-1ECD-TEV-hFc融合蛋白 (human). Description: competition ELISA, antibody titrated from 1.5 ug/ml against PDL-1 Fc fusion (2 ug/ml; PDL-1-mFc assumed) on coated PD-1 Fc fusion (PD-1-hFc assumed).
In assay [3] the target is PD-1ECD-TEV-mFc融合蛋白 (human). Description: indirect ELISA, coated PD-1 Fc fusion (mFc form assumed for 5C4), run together with 6F5H1L1 and 6F5H2L2.

Chain of PD-1ECD-TEV-mFc融合蛋白 (human) (main, as listed by the source, form in doubt): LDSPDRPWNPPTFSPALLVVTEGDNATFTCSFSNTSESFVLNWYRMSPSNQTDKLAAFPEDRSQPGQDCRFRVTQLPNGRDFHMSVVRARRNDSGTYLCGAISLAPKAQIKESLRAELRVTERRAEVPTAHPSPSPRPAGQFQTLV
Chain of PD-1ECD-TEV-hFc融合蛋白 (human) (main, as listed by the source, form in doubt): as above

A word on the EC50: it is the midpoint of the concentration-response curve. Low values mean a more potent agent, high ones a less potent agent. Regarding 阳性对照抗体5C4 (antibody), the EC50 in assay [1] turned out to be 0.199 nM; in assay [2], 1.46 nM; in assay [3], 0.233 nM.

Values taken from patent publication CN106632674A.
